Literature values, collected in publication PMC9826382.

Target: HOP TPR2A (Homo sapiens) (UniProt P31948)
Experiment: SPR

Sequence of UniProt P31948 (P31948 223-352): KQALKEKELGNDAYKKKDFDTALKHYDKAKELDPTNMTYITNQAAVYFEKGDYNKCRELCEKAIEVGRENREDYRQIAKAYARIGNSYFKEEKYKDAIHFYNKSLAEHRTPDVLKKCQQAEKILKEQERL

## HSP90 C-terminal peptide
  Kd: 11 µM
